These results are taken from publication PMC1636342.

Like-named read-outs stand apart in the source and are kept apart here.

What all share (assay): tryptophan fluorescence quenching
Data set [1] has as its target T1, Bs-CspB (Bacillus subtilis, UniProt P32081 1-67).
Data set [2] has as its target Bs-CspB G54A (Bacillus subtilis, UniProt P32081 1-67, G54A).
For data set [3], the target named is Bs-CspB F27A (Bacillus subtilis, UniProt P32081 1-67, F27A).
In data set [4] the target is Bs-CspB Q59A (Bacillus subtilis, UniProt P32081 1-67, Q59A).
In data set [5] the target is Bs-CspB F30A (Bacillus subtilis, UniProt P32081 1-67, F30A).
Data set [6] has as its target Bs-CspB K7A (Bacillus subtilis, UniProt P32081 1-67, K7A).
The target in data set [7] is Bs-CspB G35A (Bacillus subtilis, UniProt P32081 1-67, G35A).
Data set [8] has as its target Bs-CspB F30W (Bacillus subtilis, UniProt P32081 1-67, F30W).
Data set [9] addresses Bs-CspB R56A (Bacillus subtilis, UniProt P32081 1-67, R56A).
The target in data set [10] is Bs-CspB F17A (Bacillus subtilis, UniProt P32081 1-67, F17A).
In data set [11] the target is Bs-CspB K13Q (Bacillus subtilis, UniProt P32081 1-67, K13Q).
Data set [12] deals with Bs-CspB G54P (Bacillus subtilis, UniProt P32081 1-67, G54P).
Data set [13] concerns the target Bs-CspB H29Q (Bacillus subtilis, UniProt P32081 1-67, H29Q).
The target of data set [14] is Bs-CspB D25A (Bacillus subtilis, UniProt P32081 1-67, D25A).
The target of data set [15] is Bs-CspB F38A (Bacillus subtilis, UniProt P32081 1-67, F38A).
The target in data set [16] is Bs-CspB F15A (Bacillus subtilis, UniProt P32081 1-67, F15A).
Data set [17] concerns the target Bs-CspB P58A (Bacillus subtilis, UniProt P32081 1-67, P58A).
For data set [18], the target named is Bs-CspB F15Y (Bacillus subtilis, UniProt P32081 1-67, F15Y).
Data set [19] concerns the target Bs-CspB G35P (Bacillus subtilis, UniProt P32081 1-67, G35P).
The target in data set [20] is T1, Bs-CspB. The source holds these as a separate data set.
For data set [21], the target named is T1, Bs-CspB. This is another data set of the same source.
For data set [22], the target named is T1, Bs-CspB. The source holds these as a separate data set.
Data set [23] deals with T1, Bs-CspB. This is another data set of the same source.
In data set [24] the target is T1, Bs-CspB. This is another data set of the same source.
Data set [25] addresses T1, Bs-CspB. This is another data set of the same source.

B1: Y-box25 (ssDNA)
DNA: ATCCTACTGATTGGCCCAGGTGCTG
In the case of B1, the equilibrium dissociation constant (Kd) in [1] is 3920 ± 45 nM.

B2: dT7 (ssDNA)
DNA: TTTTTTT
Turning to B2, the Kd came to 1.3 ± 0.3 nM in [2]; 286 ± 7 nM in [3]; 2.7 ± 0.4 nM in data set [4]; 208 ± 11 nM in data set [5]; 6.4 ± 0.6 nM in [6]; 1.1 ± 0.3 nM in [7]. Also, the equilibrium dissociation constant (Kd) in data set [8] was found to be 1.3 ± 0.3 nM; in [9], 11.8 ± 1.4 nM; in data set [10], 345 ± 63 nM; in [11] it was 25 ± 3 nM; in [12], 220 ± 9 nM; in data set [13], 104 ± 6 nM. Further, the Kd in [14] was found to be 21.4 ± 0.5 nM; in [15] it was 228 ± 9 nM; in [16] it was 135 ± 4 nM; in [17], 1.3 ± 0.2 nM; in [18], 1.4 ± 0.4 nM; in data set [19], 118 ± 5 nM. This molecule yielded a Kd in [20] of 1.8 ± 0.4 nM.

B3: dcb2ds_13 (ssDNA)
DNA: GTTTTGTAAGAGT
In [21], B3 showed a Kd of 66 ± 21 nM.

B4: Y-box7 (ssDNA)
DNA: TATTGGT
B4 showed a dissociation constant (Kd) in [22] of 530 ± 50 nM.

B5: dcb2_b (ssDNA)
DNA: GAGTTTTGGTCTTGAA
In [21], B5 came in with a Kd of 43 ± 2 nM.

B6: Y-box5 (ssDNA)
DNA: ATTGG
B6 displayed a Kd in data set [23] of 5300 ± 1000 nM.

B7: CTCTTTC (ssDNA)
DNA: CTCTTTC
B7: the Kd in data set [24] was 3.9 ± 0.2 nM.

B8: dcb1_br (ssDNA)
DNA: GGATAAGAACGAG
The molecule B8 yielded a Kd in [21] of 1090 ± 110 nM.

B9: dT6 (ssDNA)
DNA: TTTTTT
In the case of B9, in data set [23], the Kd came to 326 ± 20 nM.

B10: dcb1_a (ssDNA)
DNA: ATTATTTTTGTTC
The molecule B10 registered a Kd in data set [21] of 44 ± 2 nM.

B11: dcb1 (ssDNA)
DNA: TTATTAG
Consider B11, for which, in data set [23], the Kd worked out at 20 ± 3 nM.

B12: dcb2_br (ssDNA)
DNA: AAGTTCTGGTTTTGAG
B12 displayed a Kd in data set [21] of 30 ± 2 nM.

B13: CTCTTCC (ssDNA)
DNA: CTCTTCC
Molecule B13 returned a Kd in [24] of 66.2 ± 4.8 nM.

B14: CTTTTTC (ssDNA)
DNA: CTTTTTC
On to B14, for which the dissociation constant Kd in [24] stood at 33.7 ± 4.1 nM.

B15: dcb2_a (ssDNA)
DNA: TTTAAGAAGAAAGTTTT
Regarding B15, the equilibrium dissociation constant (Kd) in data set [21] amounted to 460 ± 34 nM.

B16: dcb1_b (ssDNA)
DNA: GAGCAAGAATAGG
Regarding B16, in data set [21], the Kd came to 1160 ± 90 nM.

B17: CTCCTTC (ssDNA)
DNA: CTCCTTC
In data set [24], B17 came in with a Kd of 12.5 ± 0.6 nM.

B18: dC6 (ssDNA)
DNA: CCCCCC
In turn, B18 gave a Kd in data set [23] of 12600 ± 1000 nM.

B19: Y-box12 (ssDNA)
DNA: CTGATTGGCCAA
As for B19, binding in [25] was characterised by a dissociation constant (Kd) of 2030 ± 390 nM.

B20: CTCTCTC (ssDNA)
DNA: CTCTCTC
Take B20: in data set [24], binding was put at a Kd of 10.8 ± 0.9 nM.
